The text below walks through data of US6956022B2, “Agents for preventing and treating thrombocytopenia” (Chugai Seiyaku Kabushiki Kaisha, priority 1996, dated 2005).

For assay [1], the system named is platelet count. Briefly: Test for daily administration to mouse (peripheral platelet count). Particulars: C57B1/6N mice, subcutaneous once a day. In kind it is in vivo. As to the method: Test for Daily Administration to Mouse
Nine-week old male C57B1/6N mice as purchased from Japan Charles River Co., Ltd. were used in the experiment.
Drug solutions to be administered were prepared basically by the same procedure as in Example 1 to give drug concentrations of 5, 20 and 80 μg/mL.
The mice under test were divided into four groups, which were administered subcutaneously with the three drug solutions and a control (citrate buffer) once a day in a volume of 10 mL/kg. […] The administration was initiated at 10 a.m.
On days 5, 7 and 9 after the start of administration, five or six mice were picked up at random from each group of animals and blood samples were withdrawn through the orbital vein. The sampling of blood was timed to occur 24 h of the final administration. Separate blood samples were taken from untreated mice (five in number) to obtain the value for normal mouse. Peripheral corpuscle counts were obtained with an automatic corpuscle counter F-800(TOA MEDICAL ELECTRONICS CO., LTD.).

The test system of assay [2] is platelet count. The experiment in a line: Test for daily administration to rabbit (platelet count). In kind it is in vivo. Particulars: rabbits, 200 μg/kg subcutaneous daily. Here is the method: Test for Daily Administration to Rabbit
Six 12-15 week old male Japanese albino rabbits JW/CSK were used in the experiment. The animals were individually kept in aluminum rabbit bracket cages Rb-1 (350^w×500^d×350^h mm) in a vavarium in a specific pathogen-free environment under the following conditions: temperature, 24±2° C.; humidity, 50±10%; illumination, light turned on at 5:00 and turned off at 19:00; ventilation, 15 changes/hr. Each animal was supplied with 120 g of a radiation-sterilized feed for rabbits RM (purchased from Funahashi Farm) per day. The animals were also allowed to drink to tap water ad libitum from an automatic water feeder.
Human PTH(1-84) was administered in a volume of 2 mL/vial at a concentration of 200 μg/mL. A solvent was also supplied in a volume of 2 mL/vial. Both the drug and the control were stored at −135° C. until use.
PTH (200 μg/kg) was administered to the rabbits subcutaneously at the back of their neck for 13 consecutive days. The solvent was similarly administered in the same volume as the dose of a rh-PTH solution calculated from their body weight.
Blood samples (0.5 mL) were withdrawn from the rabbits through the lateral auricular vein before the administration and on days 2, 6, 9 and 13 during the administration period. […]

For assay [3], the system named is CFU-GM (precursor cells of granulocytes and macrophages). Particulars: cited from earlier work.
The subject of another assay is platelet counts. The experiment in a line: Test for single-dose administration to mouse (peripheral platelet count). In kind it is in vivo. Particulars: C57B1/6N mice, single dose 10 μg/kg through the tail vein, 6 and 9 h after the administration. Here is the method:
Test for Single-dose Administration to Mouse
Nine-week old male C57B1/6N mice as purchased from Japan Charles River Co. Ltd. were used in the experiment.
Human PTH(1-84) was dissolved in a citrate buffer (pH 5; containing 0.05% of Tween 80) at final concentrations of 1, 0.2 and 0.04 ˜g/mL so as to prepare the drug solutions to be administered.
Each of the thus prepared drug solutions and a control (citrate buffer) was administered to 15 mice through the tail vein in a volume of 10 mL/kg. […] The administration was initiated at 10 a.m.
After 3, 6 and 9 hours of the administration, five mice were picked up at random from each group of animals and blood samples were withdrawn through the orbital vein. At 10 a.m. on the same day, separate blood samples were taken from untreated mice (four in number) to obtain the preadministration value. Peripheral corpuscle counts were obtained with an automatic corpuscle counter F-800 (TOA MEDICAL ELECTRONICS CO., LTD.)

Assay [4] concerns BFU-E (precursor cells of erythrocytes). Particulars: cited from earlier work.

B1: human PTH(1-84) (protein, UniProt P01270 32-115, looked up)
Parathyroid hormone: SVSEIQLMHNLGKHLNSMERVEWLRKKLQDVHNFVALGAPLAPRDAGSQRPRKKEDNVLVESHEKSLGEADKADVNVLTKAKSQ
modifications: Parathyroid hormone
On to B1, for which the “platelet count versus control” value in the assay with platelet count [1] (all treated groups (50, 200 and 800 μg/kg), day 7) is listed as “significantly higher in platelet count than the control”; in the assay with platelet count [1] (groups administered 200 and 800 μg/kg, day 5), “tendency to increase”. For the same molecule, in the assay with platelet count [2] (day 13), the “platelet count relative to the initial level” value is listed as “substantially returned to the initial level”. Moreover, the “platelet count relative to the initial value” in the assay with platelet count [2] (increase from day 2 until day 6) is recorded as “two to four times as great as the initial value”. In addition, the “in vitro colony formation by CFU-GM” value in assay [3] is recorded as “interfered with”. For the same molecule, the “platelet counts versus control” value with platelet counts is “significant increase in platelet counts over the control”. In addition, the “in vitro colony formation by BFU-E” value in assay [4] is reported as “interfered with”.
